Test results: publication PMC4431670 (Structure(London, England:1993), 2015)

T1: C-terminal domain of Not1 (Not1C), residues 1541-2093 (S. cerevisiae, UniProt P25655 1541-2093)
T1 sequence (looked up): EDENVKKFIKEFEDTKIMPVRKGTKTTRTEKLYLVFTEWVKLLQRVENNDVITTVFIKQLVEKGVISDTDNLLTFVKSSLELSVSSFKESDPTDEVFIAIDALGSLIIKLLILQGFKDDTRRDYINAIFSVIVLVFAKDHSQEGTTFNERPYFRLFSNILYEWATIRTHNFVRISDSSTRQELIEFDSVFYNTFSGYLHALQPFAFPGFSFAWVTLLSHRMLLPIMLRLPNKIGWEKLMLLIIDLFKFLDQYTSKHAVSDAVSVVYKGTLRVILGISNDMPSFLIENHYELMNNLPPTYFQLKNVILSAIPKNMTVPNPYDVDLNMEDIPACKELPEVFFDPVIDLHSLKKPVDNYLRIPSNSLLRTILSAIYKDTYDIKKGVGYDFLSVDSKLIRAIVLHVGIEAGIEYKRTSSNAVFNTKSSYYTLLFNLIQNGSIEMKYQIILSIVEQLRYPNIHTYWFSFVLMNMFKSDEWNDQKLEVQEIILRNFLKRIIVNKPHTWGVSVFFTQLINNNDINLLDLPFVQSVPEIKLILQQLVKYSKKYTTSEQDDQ


Assays:
[1] = target: T1, C-terminal domain of Not1 (Not1C), …; test: pull-down
[2] = target: T1, C-terminal domain of Not1 (Not1C), …; test: crystal structure

Row | binding result [1] | binding result [2] | Binder
1 | binds |  | GST-tagged Not4C (domain or fragment, S. cerevisiae, UniProt P34909 418-477, looked up) DPYDALGNAVDFLDARLHSLSNYQKRPISIKSNIIDEETYKKYPSLFSWDKIEASKKSDN
2 |  | binds | Not4C, residues 418-477 of Not4 (domain or fragment, S. cerevisiae, UniProt P34909 418-477, looked up) DPYDALGNAVDFLDARLHSLSNYQKRPISIKSNIIDEETYKKYPSLFSWDKIEASKKSDN
